Laboratory results taken from US20260049105A1, “SELECTIVE MC4R LIGAND FOR TREATING OBESITY AND COGNITIVE LOSS” (ARIZONA BOARD OF REGENTS ON BEHALF OF THE UNIVERSITY OF …, priority 2022, published 2026).

Target: human melanocortin 4 receptor (human), P32245
Assay: competition with 125I-NDP-α-MSH on whole HEK293 cells expressing hMC4R
Conditions: remark: other sources report otherwise

Sequence of human melanocortin 4 receptor (human), P32245 (P32245 whole entry): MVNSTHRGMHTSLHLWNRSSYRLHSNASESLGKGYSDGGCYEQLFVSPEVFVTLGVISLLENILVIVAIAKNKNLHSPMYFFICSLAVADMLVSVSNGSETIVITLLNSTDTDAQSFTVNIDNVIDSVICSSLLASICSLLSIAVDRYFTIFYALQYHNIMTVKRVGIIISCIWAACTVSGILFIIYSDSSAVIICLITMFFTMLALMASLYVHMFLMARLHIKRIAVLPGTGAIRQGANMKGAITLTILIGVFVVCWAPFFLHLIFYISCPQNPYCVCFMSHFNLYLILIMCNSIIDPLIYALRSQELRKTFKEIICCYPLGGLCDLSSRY

BE% (percent [125I]NDP-α-MSH displacement at 10 µM): 23%
B1: Ac-Arg-cyclo[Asp-Pip-D-Phe(4-F)-βArg-Trp-Lys]-NH2 (peptide)
peptide: RDXFRWK
modifications: not fully specified; here or on the partner: N-terminal acetyl (Ac); C-terminal amide (NH2); cyclized through the side chains of Asp2 and Lys7; Pip at 3; D-Phe(4-F) at 4; βArg at 5
